{"source": "patent US20100041875A1", "data": [{"molecular_target": "JR-FL gp41 NT 1-5 SOS gp140 mutant (trimer) (HIV-1 isolate JR-FL (subtype B)) (UniProt P20871)", "experiment": "SPR, with against without D1D2-CD4", "units": {"fold induction of 17b binding by D1D2-CD4": "fold"}, "values": [{"substance": "MAb 17b (antibody)", "fold induction of 17b binding by D1D2-CD4": 25}]}, {"molecular_target": "wild-type JR-FL SOS gp140 (trimer) (HIV-1 isolate JR-FL (subtype B)) (UniProt P20871)", "experiment": "SPR, with against without D1D2-CD4", "units": {"fold induction of 17b binding by D1D2-CD4": "fold"}, "values": [{"substance": "MAb 17b (antibody)", "fold induction of 17b binding by D1D2-CD4": 5}]}, {"molecular_target": "JR-FL gp41 NT 1-5 SOS gp140 mutant (trimer) (HIV-1 isolate JR-FL (subtype B)) (UniProt P20871)", "experiment": "SPR (BIAcore X): agent captured via Fc on protein G chip, 5 nM purified gp140 trimer injected, no CD4", "units": {"Mean RU at end of injection (t = 180 s)": "RU"}, "values": [{"substance": "MAb 17b (antibody)", "Mean RU at end of injection (t = 180 s)": 14}]}, {"molecular_target": "wild-type JR-FL SOS gp140 (trimer) (HIV-1 isolate JR-FL (subtype B)) (UniProt P20871)", "experiment": "SPR (BIAcore X): agent captured via Fc on protein G chip, 5 nM purified gp140 trimer injected, no CD4", "units": {"Mean RU at end of injection (t = 180 s)": "RU"}, "values": [{"substance": "MAb 17b (antibody)", "Mean RU at end of injection (t = 180 s)": 39}]}, {"molecular_target": "JR-FL gp41 NT 1-5 SOS gp140 mutant (trimer) (HIV-1 isolate JR-FL (subtype B)) (UniProt P20871)", "experiment": "SPR (BIAcore X): 17b captured via Fc on protein G chip, 5 nM gp140 trimer pre-incubated 1 h with 6-molar excess D1D2-CD4", "units": {"Mean RU at end of injection (t = 180 s)": "RU"}, "values": [{"substance": "MAb 17b (antibody)", "Mean RU at end of injection (t = 180 s)": 399}]}, {"molecular_target": "wild-type JR-FL SOS gp140 (trimer) (HIV-1 isolate JR-FL (subtype B)) (UniProt P20871)", "experiment": "SPR (BIAcore X): 17b captured via Fc on protein G chip, 5 nM gp140 trimer pre-incubated 1 h with 6-molar excess D1D2-CD4", "units": {"Mean RU at end of injection (t = 180 s)": "RU"}, "values": [{"substance": "MAb 17b (antibody)", "Mean RU at end of injection (t = 180 s)": 237}]}, {"molecular_target": "full-length WT JR-FL (gp160) Env (JR-FL WT) (HIV-1 isolate JR-FL (subtype B)) (UniProt P20871)", "experiment": "cell-based or functional assay", "units": {"neutralization of Env-pseudotyped virus infectivity in the presence of sCD4 (17b + sCD4), mean IC50": "µg/mL", "IC50 of neutralization, fold against the mutant": "fold"}, "values": [{"substance": "MAb A32 (antibody)", "neutralization of Env-pseudotyped virus infectivity (U87.CD4.CCR5 cells), mean IC50": "> 50 µg/mL"}, {"substance": "monoclonal antibody (MAb) PA-1", "neutralization of Env-pseudotyped virus infectivity (U87.CD4.CCR5 cells), mean IC50": "> 50 µg/mL"}, {"substance": "MAb b12 (antibody)", "neutralization of Env-pseudotyped virus infectivity (U87.CD4.CCR5 cells), mean IC50": "0.15 µg/mL"}, {"substance": "MAb b6 (antibody)", "neutralization of Env-pseudotyped virus infectivity (U87.CD4.CCR5 cells), mean IC50": "> 50 µg/mL"}, {"substance": "MAb 17b (antibody)", "neutralization of Env-pseudotyped virus infectivity (U87.CD4.CCR5 cells), mean IC50": "> 50 µg/mL", "neutralization of Env-pseudotyped virus infectivity in the presence of sCD4 (17b + sCD4), mean IC50": 25.9}, {"substance": "MAb 2F5 (antibody)", "neutralization of Env-pseudotyped virus infectivity (U87.CD4.CCR5 cells), mean IC50": "6.2 µg/mL"}, {"substance": "MAb 4E10 (antibody)", "neutralization of Env-pseudotyped virus infectivity (U87.CD4.CCR5 cells), mean IC50": "13.4 µg/mL"}, {"substance": "T-20 (Enfuvirtide) (peptide)", "IC50 of neutralization, fold against the mutant": 2, "neutralization of Env-pseudotyped virus infectivity (U87.CD4.CCR5 cells), mean IC50": "24.2 nM"}, {"substance": "CD4-IgG2 (PRO 542) (from UniProt P01730 26-204) (Fc fusion)", "neutralization of Env-pseudotyped virus infectivity (U87.CD4.CCR5 cells), mean IC50": "0.82 µg/mL"}, {"substance": "MAb F425-B4e8 (antibody)", "neutralization of Env-pseudotyped virus infectivity (U87.CD4.CCR5 cells), mean IC50": "2.94 µg/mL"}, {"substance": "MAb 15e (antibody)", "neutralization of Env-pseudotyped virus infectivity (U87.CD4.CCR5 cells), mean IC50": "> 50 µg/mL"}]}, {"molecular_target": "JR-FL gp41 NT 1-5 mutant Env (full-length gp160) (HIV-1 isolate JR-FL (subtype B)) (UniProt P20871)", "experiment": "cell-based or functional assay", "units": {"neutralization in the presence of sCD4, fold against the WT virus": "fold", "neutralization of Env-pseudotyped virus infectivity in the presence of sCD4 (17b + sCD4), mean IC50": "µg/mL"}, "values": [{"substance": "MAb A32 (antibody)", "neutralization of Env-pseudotyped virus infectivity (U87.CD4.CCR5 cells), mean IC50": "> 50 µg/mL"}, {"substance": "monoclonal antibody (MAb) PA-1", "neutralization of Env-pseudotyped virus infectivity (U87.CD4.CCR5 cells), mean IC50": "> 50 µg/mL"}, {"substance": "MAb b12 (antibody)", "neutralization of Env-pseudotyped virus infectivity (U87.CD4.CCR5 cells), mean IC50": "0.17 µg/mL"}, {"substance": "MAb b6 (antibody)", "neutralization of Env-pseudotyped virus infectivity (U87.CD4.CCR5 cells), mean IC50": "> 50 µg/mL"}, {"substance": "MAb 17b (antibody)", "neutralization in the presence of sCD4, fold against the WT virus": 2, "neutralization of Env-pseudotyped virus infectivity (U87.CD4.CCR5 cells), mean IC50": "> 50 µg/mL", "neutralization of Env-pseudotyped virus infectivity in the presence of sCD4 (17b + sCD4), mean IC50": 15.2}, {"substance": "MAb 2F5 (antibody)", "neutralization of Env-pseudotyped virus infectivity (U87.CD4.CCR5 cells), mean IC50": "5.9 µg/mL"}, {"substance": "MAb 4E10 (antibody)", "neutralization of Env-pseudotyped virus infectivity (U87.CD4.CCR5 cells), mean IC50": "14.1 µg/mL"}, {"substance": "T-20 (Enfuvirtide) (peptide)", "neutralization of Env-pseudotyped virus infectivity (U87.CD4.CCR5 cells), mean IC50": "11.5 nM"}, {"substance": "CD4-IgG2 (PRO 542) (from UniProt P01730 26-204) (Fc fusion)", "neutralization of Env-pseudotyped virus infectivity (U87.CD4.CCR5 cells), mean IC50": "0.74 µg/mL"}, {"substance": "MAb F425-B4e8 (antibody)", "neutralization of Env-pseudotyped virus infectivity (U87.CD4.CCR5 cells), mean IC50": "2.64 µg/mL"}, {"substance": "MAb 15e (antibody)", "neutralization of Env-pseudotyped virus infectivity (U87.CD4.CCR5 cells), mean IC50": "> 50 µg/mL"}]}, {"molecular_target": "JR-FL gp41 NT 1-5 SOS gp140 mutant (trimer) (HIV-1 isolate JR-FL (subtype B)) (UniProt P20871)", "experiment": "SPR (BIAcore X): agent captured via Fc on protein G chip, 5 nM purified gp140 trimer injected", "units": {"Mean RU at end of injection (t = 180 s)": "RU"}, "values": [{"substance": "monoclonal antibody (MAb) PA-1", "Mean RU at end of injection (t = 180 s)": 123}, {"substance": "MAb b12 (antibody)", "Mean RU at end of injection (t = 180 s)": 195}, {"substance": "MAb b6 (antibody)", "Mean RU at end of injection (t = 180 s)": 233}, {"substance": "MAb 2F5 (antibody)", "Mean RU at end of injection (t = 180 s)": 216}, {"substance": "MAb 4E10 (antibody)", "Mean RU at end of injection (t = 180 s)": 94}, {"substance": "CD4-IgG2 (PRO 542) (from UniProt P01730 26-204) (Fc fusion)", "Mean RU at end of injection (t = 180 s)": 224}]}, {"molecular_target": "wild-type JR-FL SOS gp140 (trimer) (HIV-1 isolate JR-FL (subtype B)) (UniProt P20871)", "experiment": "SPR (BIAcore X): agent captured via Fc on protein G chip, 5 nM purified gp140 trimer injected", "units": {"Mean RU at end of injection (t = 180 s)": "RU"}, "values": [{"substance": "monoclonal antibody (MAb) PA-1", "Mean RU at end of injection (t = 180 s)": 242}, {"substance": "MAb b12 (antibody)", "Mean RU at end of injection (t = 180 s)": 223}, {"substance": "MAb b6 (antibody)", "Mean RU at end of injection (t = 180 s)": 391}, {"substance": "MAb 2F5 (antibody)", "Mean RU at end of injection (t = 180 s)": 191}, {"substance": "MAb 4E10 (antibody)", "Mean RU at end of injection (t = 180 s)": 83}, {"substance": "CD4-IgG2 (PRO 542) (from UniProt P01730 26-204) (Fc fusion)", "Mean RU at end of injection (t = 180 s)": 212}]}]}
